Results: paper PMC314469, “Protein Interaction Networks by Proteome Peptide Scanning” (PLoS Biology, 2004)

T1: amphyphisin SH3 (AMPH_HUMAN), P49418
T1 chain: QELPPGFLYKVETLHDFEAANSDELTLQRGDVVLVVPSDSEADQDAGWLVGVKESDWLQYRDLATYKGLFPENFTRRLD


Legend:
[1] = target: T1, amphyphisin SH3 (AMPH_HUMAN), P49418; test: SPOT array
[2] = target: endophilin SH3 (SH3G2_HUMAN), Q99962; test: SPOT array

Binder	normalised SPOT signal, Boehringer light units (BLU); mean over the file's lines of this peptide [1]	normalised SPOT signal, Boehringer light units (BLU); mean over the file's lines of this peptide [2]
APRYLGRPKKEKTI [Q9C0B5 292-305]	7.1	69.5
LSGGLKRPSTRTPN [Q9BQL3 78-91]	22.4	27
LRPVPGKPPGVDPL [Q04727 335-349]	66.4	32.5
LRPVPRRPSTWSRR [Q9NWJ0 49-62]	2420	4830
LSDFPKKPPQPELG [Q96QH2 325-339]	64.9	95.7
LTVAIRRPTDDSNQ [Q9Y2E4 454-467]	29.3	158
LSERPPRPPPPPPP [Q96Q04 431-445]	341	944
LRRLLKRPELEEIF [Q96FL6 71-84]	35.9	59.1
LREDFVRPLREGIL [Q9P2E3 383-396]	5300	208
LRATLKRPEVIATS [Q96JV6 461-474]	37.9	97.1
LTIELRRPENEFWV [Q9NVH6 359-372]	60	52.4
LSADPERPGRFRLE [Q9H0F6 46-59]	37.1	121
LRRHPSRPMRQSRR [Q9NYU0 896-909]	3450	412
LTHVLSRPRRGSSG [Q9H6B9 44-57]	2960	170
LTSFLRRPFQSPTS [Q04637 602-615]	70.3	1560
LSSPLRRPWDQAQH [Q9P2W0 105-118]	100	280
LSLLLKRPWDPAVG [Q9NWE5 158-171]	30	38.6
LQSDPPRPHRILQA [Q06481 479-492]	170	184
LTVAIRRPPDLGGP [Q96NX2 418-431]	23.5	17.9
LTPVPSKPPVTPAT [Q03112 565-579]	55.4	37
LTVTLQRPTKELHG [Q9Y2K7 133-146]	94.9	192
LRWGFSRPRKDKGL [Q9P2P9 1564-1577]	259	102
LTSGPARPWKSVAL [Q01113 359-372]	142	428
APRRPRRPRRPGPS [Q96QG0 341-354]	2420	1500
LTLKPIRPRKYPNR [Q06889 251-264]	482	102
LRAMPSRPPRLLAT [Q9UNU2 285-298]	5160	7160
LSKWLKRPGALEKQ [Q96S42 159-172]	21.1	67.5
LTKVFFRPGKFAEF [Q9UM54 753-766]	132	199

Continued, values first:

normalised SPOT signal, Boehringer light units (BLU); mean over the file's lines of this peptide [1]	normalised SPOT signal, Boehringer light units (BLU); mean over the file's lines of this peptide [2]	Binder
46.1	39.8	LSPRPEKPPEEPGQ [O14687 279-293]
120	106	LSNSLTRPQKLSPV [O60673 804-817]
60.8	154	LSQPPRRPWGNLTA [P22105 891-904]
35.6	43	LTSGLRRPFGVAVM [Q14185 317-330]
35.8	50.6	LRGKFKRPPLRRVR [P48788 102-115]
23.3	38	LRGKFKRPTLRRVR [P19429 134-147]
41	44.1	LTLLFKRPFGTSDP [P09172 129-142]
339	2810	APQSPRRPPHPLPP [P12270 2055-2069]
92.3	257	APRAPRRPRSPPSS [P27815 35-48]
8.1	159	LTLNIRRPSPFDAG [Q14324 1104-1117]
1690	489	LRQPLRRPFRPNGL [Q16753 167-180]
7210	16200	LRPPPMRPVRPVVQ [O43295 603-616]
23.4	121	LSFHPKRPWILTSL [P53621 15-28]
91.3	6220	LRKRPLKPPAKKIM [O14789 574-588]
